Assay: soluble on expression in E. coli; label from the status in PepcDB or PDB records
In the case of “MAHHHHHHMHPYLFICKEGNNNNGSTTNLKSGMSLSDRRHTPLGRNLSESTELSQSLSSRSGGSSPIPRPNLDDITRRLLEENEGMLFEINKLTRELTDERAKVSGLHETLAERSAELELMKEKLSDATVVATDDTGKPINYKRECDGLAADNNRLVKEYERVCTELEKRTEEIRREMGDQRDEAEGKTISVQVEQFNREITALVPTVEHIVNSLKRCVVTGGIAEERILENAQKELHTMRRITDTVRRMNAGDETCVKGLLTQIQKGEQLTAPGDVAVVIRWMVVRAFEAGLQSAEGNLRTLVDILNNSKGRYTSENATTGSGEVPASGISVRQMFRLLKM”, the “soluble on expression in E. coli” value is reported as “not soluble”.
In the case of “MAHHHHHHMHQHGKTSGTDGSGATVSQSSSGFMETPWRIFEYGVASEQGSRKTMEDQHAMVAESFPFFAVYDGHGGTQCAEFLRDNLHTFIFGQPEIETDPERATRAGIAEAENAFLTKCADEKIESGSTCAVALVVDDTLIAGNVGDSEIVLCRAGAPIVLSTKHSIQDNVSEGERVKACGGRIISNRVGHPKFNPQLLSLAITRAIGDAGFKLREFTDGKPSGVIADAETRSTRLTDDDKFLIIGCDGLWDVMSYEAAVQLCSRLASEGETPKAIAGSLCQEALRQGSTDNVTCIYINIRAKSSAPGCGQLGSGDPLHNM”, the “soluble on expression in E. coli” value is reported as “soluble”.
With “MAHHHHHHMHYTGVGIEDVKVRFNEKMRLSASLQRRKSEEVEWSLFWEALNKGDGKMISEALSGASVSGATQQIGMAEACAVLLKGAGKEWHTRIVDDLPFSTVTRCSLLHAALAEKRPDVAAEMLSHARVTRSDLSSLWPLMAKCTWEEVLRMISACPKNAVPYNQALPFILKQGCSLQTLSEHLEHARVLGDADVVAPLLAYAVEMEDWPYVERCVGHLVDIGKITPSAREAFGHLCKLHGPKRVCHRLMEHHVELSSMTIEDLESLRF” the “soluble on expression in E. coli” value was “not soluble”.
For “MAHHHHHHMIRRKLYCSFLFLAILETFKVNQRWSIFISAWYAHEDVDSDYSHSKLYEVLGVHKYATTEEIKKAYRKLSKKYHPDKAKDKNSNNRFNEIAEAYEILGDEEKRKVYDHHGLEAAKNVESNKMDEDPTDHFNIYESFFGGAGGFRREEMKKADSLTLNVEMSLEQLYNGDFFSVIYTRDVNCLRSDDCIMKKKECSGKGYKTVTQQVAPGFIMQNKMRDENCIDRGKAWNPKCSYCPNGMKEEKTIELTLEVEKGMKNNDKIVFEKKGKQEIGYESGDVIFVIQTKKHKVYERKNNDLHQFYEISLKDALIGFSKDIDHISGAPIRINKQTVTFHNEILKVQNKGMPIRDSSKYGDLYIKFLVQFPKYLTEEQKRAISQFL”, the “soluble on expression in E. coli” value was “not soluble”.
With “MAHHHHHHMKGVKFRDNFVKLKEEGPRNATTTNFYGSYFLSENEHLFDINEFEKNLEMKMHKNEENLLILEVKNLNVSIANALRRIMLAEVPTIAIEKVNIFQNTGIIADEILCHRLGLIPFKFDADLINFKEEYEKYNHLNCFCFKLHVKFTKKAGSSETCQSIYSRDLKWCPINEHQKARFQKNPPRVVDDNILITKLSNGQEIELICFLEKGIGKTHAKWSPVCTAVYKMYPAFSFNTCEKFTQEEKKDLVNICPKNVFDVEDSDTLVAKNPLNCSSCRVCIEKYPKKISFEKVKNHFIFTIESTGCFSSADIFRKALLILKDKVVSVKEVLEDQTKA” the “soluble on expression in E. coli” value was “not soluble”.
For “MAHHHHHHMKKLHQERGGNPMLAQQARRVLFATSITGQNIDARSIALLLNTAVYFGMESDARVVRECIDFCLKNDKFISLDIMPIVVTACATLQSRDAREVIELQAIKATRNARFLDAKGVTNVISAFSKTGINHEKLFGLLSMRVQTLARVGEFEAAHLVILANAFARLRFREQHVFSAIARRAMSLRERVTVNELVPLINAFSKAGLKDPKLSKRFAGKAMEYVDQMNAEQVALMFQAFAYFGIRYDQLFGVLTNRAVELIDEFNAQYISTTLASFQRIGINNPELFDNLAERALAVVQDHDAKDIALTVTALAHFGLKDEELFKRLASHAASIADQFDPVGLVNTIHAFARTFFLQEDMVVALSERCVYVCRHLDANQVRRLLWSLAKFQVKDPRILTPVFNRCLTLHQDFFSDPMGGEEIEEIFDVFGPSFCPPLYQLYMSRGNSV”, the “soluble on expression in E. coli” value was “not soluble”.
For “MAHHHHHHMKNSQMERKKYSVHNLVKLINERNKQNVRNKQPAVGADGTTSINAAGDGLDGETHSNFFHVEKNGQVGRKDKAGFPAEDGEIGGEYDVRDGSVDEEDECDGEAVRDGEAAPDEERADCTDGADTTLPPGGGGEVKLFMFDYNECQNQKCSCKKLYRFKKIKKAPINKKFKGIVLTPFCEKFFSINDKATVENFGLSVIDCSWKSLDLLKKAKFANQRKLPYIIAVNSINYGKPYKLSCLESLAFCLYVCGYNKQCTDILNIYKWSSSFVNLNGELLDMYKLCNTHEEVKSVEDEFIHNSLSEKEKRKEIDQYRVIYEDGYL”, the “soluble on expression in E. coli” value was “soluble”.
With “MAHHHHHHMKRGNEVAREMWAPSTWEQRMSLAGQFTTFCRTHEQPINEESRAALLVAILDVAPPTRPQHARMLRSMLEMNRTPLGMAILGLQKLAARSETRQARSLTKEGMDQFIRSRIDWNQRVVFRLACMTASRWSGIAALTPNNATLEADGTIILDWSVAPKTARADPHRAPRFVGIRGRDALDTITLCRTLQENEKLTNVTNAKVERALAPWDATAHSIKRGALRHAAQIVETCNLDPHVISQLAKHVDPFVLPQNTVRYFWKYTTVLTQVLPLVVLM” the “soluble on expression in E. coli” value was “not soluble”.
In the case of “MAHHHHHHMKRWRTANLFTPAEVQHAFAALHRNAEALYSVSGTSSPLGPFVCRRGGARRHRRDHIELPLRHMYEAKTVYEQLPVEVRLICAGLYEAALGYAQEALREPGVSSAARDGILSNLGRNSVLRVLRYPAGSGCRPHVDPGLCTALLVGSAGGLEMSTTDAVLTPFASGPGHNTAHFVSSPTSMRGEAATMPGTLPHWEPVLTAHTGEAVVMAGNMLGAVSGGALPGVLHRVRRDWVAETPRTDGQRSPPLHAACVGGGADAEVDAGSGVFRFNVIVELRPAHAKRWYAATSGQSQLSSASSPSSLA”, the “soluble on expression in E. coli” value is reported as “not soluble”.
For “MAHHHHHHMKSFSVTPRVWRRISEKNAEEGYGNDLRYLRLMIESGGCHGYAYKFLFEENSELVADEDVVVAESDVVQLPQPKSQELRTVAEGEGEGDVGESKAKGPPPRLVVDKHSVAKLLSAVVDFHSELKGSAFVVIGNELVDKSCACAMSFSMKKQQQKV”, the “soluble on expression in E. coli” value was “not soluble”.
In the case of “MAHHHHHHMKSTQSNLNDEEKVMNNNEKIIKNSYGELLSGCIKNKSSDMNTGDVYPCNDKNTKIVSIKNVYNNLYKTSDSLFFNEENEENRMENCIIRNDGRDMENKFSLYINNAENKDDNNMNNNKNDNINDNINDNINDNINDNINDNINDNINDNINNNINDNINNNIYHNQNNNIYHNIYHNNIINDGVIINEHTSHGDRSSFLNNNKNYNISNYTNHGHNINLNEEKNEKVYMHRNENNEKIHYSNNKDYIEKGNEKSVSSKKGEETYTNNSYNIHLKNMDVKNNERDMCKTMVNNSNIKENKKYSNKTIQQEENTEHEYNIINEEEEEHIKLFKNMNLEEIKNVLSKNDASTLKILLCTDNHLGYKENNSIQKKDSFNSFEEILFIAKKLNVDMILNSGDLFHKNKVSEYTLFKSMYIIRKYCHINENDKEMQQDDNINNNIYPNDLNNDDKSVSKAISEDEFCNMYNVQVKEIKNYKYEYYKNEHTLNNRNNIFDDTNDCMSNKSFIQDKNENLYKDDEDNTNGVKLLQRNDEMNNSDHPGEYLNYRNGKKQIKYYNKLKENNNEFFNKLKICSVNQKFKKLIPFYTIHGNHDYPYSYEYISPLDILNISNLINYIGKNNLNNIVVKPILLNKYKSKISIYAVGWMKDERLYRSFENNEVKFILPSDYKNRINILVLHQNRYIRNAYGNNTKNFIKESFIPKFIDLVIWGHEHFSKPYLEESILNSFYNIQLGSSVRTSICPNEYGDKFIGLLEIKNQRFRFLKINLETVRPFEMKDIKLADYELNFKSESVLKEFLHEQTHAILEKIKNNFSHEIKKYFFFKQLFHTKNKLETNTNKKHQTEYNNINICTKEINSHLNDYQDENLYKSLISISKEDINNFYNNLKNEDFYSSTFIHFAFADPYDTFDLLKIKKEVYEKPLLKIKVEYDDVNIINTQLFGSLFINSIANPSEFLSFYRKKIRQRDIYNNNDNNNDNINDNNNNNDHGKNNTNHDTYNNNYNNNRIDEDEGDKDLHNMEYINEYNKVFDILFDYCDIKNKLLILDENVIMDTIQNFILNTNSSFNFNTNVTSDFTSINSMVDKSFKNKVESIEKQMGNMSAENITDAYLTDVLKKIKNTS”, the “soluble on expression in E. coli” value is reported as “not soluble”.
For “MAHHHHHHMKVVEKQLSKKTLKVKKETEKNSTGFMEKKKINKKEKKIYKNNYNNDNIKEEEDILLNQDDFEKKKKKSLENKILLSKKLKEIKLQFKDDDTINNSKKNNWIERLDITSTEYYYLKKTELFGISESREKQLQNITHMNVIQALQKLQELNIKFNRPYDFLADMLKSDIHMEKIRQKILKEHEQAEVRENNKLKRINKKFLKKCGSQKIKSHKEALEKKQNLLKIDQLKKTNNLQNLNVQEFFIKHSKDHDYKAGKITAKKDMKHKKKNFNNKAKKDKGIKNKQIGKKTSINNKRKASSKNSRKSKKMKKKHKHRK”, the “soluble on expression in E. coli” value was “soluble”.
With “MAHHHHHHMLLLKRPFLPARVAPLCAQRKVSRLITYYTKSHEYIKINDEDLTELKKKNNVKCKIGISNYGTEKLGEIVYIDISQNINEYVKKGECIATVESVKSVGDVYTPISGQIVDINNEIVDNVNLMNGNSESDGWILELLTNDVNEKEIMSFSEYKKMCEEEEQREATKIQQSERDCLEEKNKNKIFDLNDIKNIEEKTKK” the “soluble on expression in E. coli” value was “soluble”.
For “MAHHHHHHMLQEYTGERCVSYRVNPQRGGCVETVAEVDAQDFFTEPGGLVTSPTTPSTPAGSTSARQARRRVVTTLERILLPDGYPSSVTEDLLPFALWDLAQVLAKNVTATLSTRAVLLGVGVGESKADLTSATLSWMMQDGTRMIGSVVFAPLIPQGLECRAKTWQLVADFTTDIANLLELCAPWLPGGQTTFRVVLVAASVVKALGSVCRNCTRASFTRHFALRNNAADIAAKASTRSSVGSFIGLVLGVAVAYIVPATSRSLNLVVFALGSVLHIFASYRSVRGVQLKHLNAPRLEWCLVQYSLFEAKVLIASKKDSGPLSVMPILDVSPRSANAAERLLILPSLRAVPPPSDSFYDSVRGFLCRYCFPPTLTLRIHCGASLFRLLQHQRGLTTRCKHELVQQVESALASRGIALLVDDVDMTYYVILPEYFTVEGVPAMWVRYKRQYGDDLTCMEAKQRQSAAARAAQRRQDGAASLSPSGAAVAAPDAGHGLDEAGRRAAQAEAELERLQKERVVVPPHILPLAYRQLWAYFYAFMHYRAVRLRREGPLTHAKDVLEGLHKNRSLECQRLHIITALRADGTLEAGHSDASDVPHSPAQFEEITSPASTTSDVPLERRVVPALATRAGGDDGDDGDNTAAPSYDGLHPQFIEFVRALRMTGWELDELLVGNEGYTTVVHYL”, the “soluble on expression in E. coli” value was “not soluble”.
With “MAHHHHHHMLSTTDGTTSTLSPERTAVIELHTSASYARDTVHRLREYCNSLEATRQQLRRRLSSVPNSHNVSAVALSRARSPSSLSHLHGQAPLPPLAAAAPTLSRPFFTSEYIDPEVDATLQDVDETTALETMIVLHEDGAGTITKRMIDGSQSCISSLAVHSSSPQSQRPAATTASLLAIHSPTPVAENGTSWARQYSPLALRRMKPQQLLSHYLRDTHNAMVIADEPRAHRHSSSLCTNASSSCCVPVVRLGKPMRSASASLWNASDVNMHFPHAVPLAPSLSESPPKQAPSTGRFVVPPATPLDESDAEQLPPQSLPPRPNNHKTTAGASVFVSLAGCTAPGQFAGLQTGVTSSTMGASSRVNSQRFAMKGLRESVSPKEHGTRSRSKSSRSSAGSEALVSGKQTTSSASAAAASAPLWDPTRHSLQSPSPVMLSTSTETSAASALVVSDRLGTPVTTSGCEVGVPGASNDSVHRPRPIGTSLITAVASTSFSPLSAPAPDSEEPQPPAETAVQPHIRSPLRRLHLEAHAVRCDHASSGNRRDLYTDSLHVSGSASPAPSTPRNSEENSGDRCKRSNTTAFLDEEKREASAVSTAGACRVSAQLPVLESDVVSPDGADSFHSKDAAVSPRRSSERTVNFLSPDQVEGSLLPQPQRPTSQRLISPSPPRGVAADSNEQNPRDGNTDLKAVSAESIPKDADIDSTSPRRHLVLPQHRSPVAPPRVVIISKDDESPSPARSSLSRSLHSLPSTLSDGHCDDASDDGDDEDGSLWYSEQF” the “soluble on expression in E. coli” value was “not soluble”.

Source: the DeepSol protein solubility set
